From US5856161

Tests used:
[1] = target: p60-Tumor Necrosis Factor Receptor Associated Kinase (p60TRAK); assay: U937 lysate depleted with p13^suc1 -agarose or GST beads, supernatant precipitated with GST-p60Δ15, kinase assay with histone H1
[2] = target: p60-Tumor Necrosis Factor Receptor Associated Kinase (p60TRAK)
[3] = target: GST-p60Δ4 (Homo sapiens (Human)) (UniProt P19438)
[4] = target: GST-p60Δ5 (Homo sapiens (Human)) (UniProt P19438)
[5] = target: T1, p13^suc1 -agarose (UniProt P08463); assay: U937 lysate depleted with p13^suc1 -agarose or GST beads, supernatant precipitated with GST-p60Δ8 or GST-p60Δ15, kinase assay with Rb^110
T1 sequence: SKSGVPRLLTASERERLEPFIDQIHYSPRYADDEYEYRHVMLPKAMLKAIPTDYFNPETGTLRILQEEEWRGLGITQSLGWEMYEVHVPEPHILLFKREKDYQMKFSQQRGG

p13^suc1 -agarose (from UniProt P08463)
depletion of p60TRAK activity [1]: 50%

p49^WEE1 (from UniProt P30291) (enzyme)
histone kinase activity of p60TRAK [2]: > 70%

p60-Tumor Necrosis Factor Receptor Associated Kinase (p60TRAK) (enzyme)
phosphorylation in an in vitro kinase assay [3]: 50%
phosphorylation in an in vitro kinase assay [4]: 50%

p60-Tumor Necrosis Factor Receptor Associated Kinase (p60TRAK)
reduction of Rb^110 phosphorylation by p60TRAK after depletion [5]: phosphorylation of the retinoblastoma protein (Rb^110) by p60TRAK after depletion with p13^suc1 -agarose was reduced by greater than 60%
